Laboratory results published in PMC3089914, “Structural Basis of the 9-Fold Symmetry of Centrioles” (Cell, 2011).

Legend:
[1] = target: C. reinhardtii Bld12p crN-6HR fragment with F145E (crN-6HR[F145E]) (C. reinhardtii); experiment: SEC-MALS; S-200 analytical size exclusion column in line with light scattering and refractive index detectors; PBS with 1 mM DTT; samples of 2-4 mg/ml
[2] = target: C. reinhardtii Bld12p crN-6HR fragment with F145E (crN-6HR[F145E]) (C. reinhardtii); experiment: dilution series monitored by CD at 222 nm; 20°C, samples reduced with DTT; fit to a two-state association (monomer-dimer) model; dimer to monomers
[3] = target: C. reinhardtii Bld12p crN-6HR fragment with F145E (crN-6HR[F145E]) (C. reinhardtii); experiment: AUC; sedimentation velocity, 20°C, 150 μM protein; 20 mM Tris-HCl pH 7.5, 150 mM NaCl, 2 mM TCEP, 1% glycerol
[4] = target: C. reinhardtii Bld12p N-terminal domain fragment (crN, residues 1-159) (C. reinhardtii); experiment: ITC; dilution: crN at high concentration (1.0-1.6 mM) injected stepwise into buffer; 7°C; 12 mM HEPES pH 7, 100 mM NaCl, 0.7 mM βMe; dimer to monomers
[5] = target: the molecule itself; experiment: crystal structure; X-ray crystallography; sitting drop vapor diffusion
[6] = target: the molecule itself; experiment: AUC; sedimentation velocity, 20°C, 300 μM protein; 20 mM Tris-HCl pH 7.5, 150 mM NaCl, 2 mM TCEP, 1% glycerol
[7] = target: the molecule itself; experiment: ITC; dilution: 1.6 mM ceN injected stepwise into buffer; 7°C; 20 mM sodium phosphate pH 7, 100 mM NaCl, 1 mM DTT; dimer to monomers
[8] = target: the molecule itself; experiment: AUC; sedimentation velocity, 20°C, 200 μM protein; 20 mM Tris-HCl pH 7.5, 150 mM NaCl, 2 mM TCEP, 1% glycerol
[9] = target: the molecule itself; experiment: SEC-MALS; S-200 analytical size exclusion column in line with light scattering and refractive index detectors; PBS with 1 mM DTT; samples of 2-4 mg/ml
[10] = target: the molecule itself; experiment: dilution series monitored by CD at 222 nm; 20°C, samples reduced with DTT; fit to a two-state association (monomer-dimer) model; dimer to monomers

“C. reinhardtii Bld12p crN-6HR fragment with F145E (crN-6HR[F145E]) (domain or fragment)” was tested, and the stoichiometry N [1] was 2, the Kd [2] was 0.5 µM and the stoichiometry N [3] was 2.

“C. reinhardtii Bld12p N-terminal domain fragment (crN, residues 1-159) (domain or fragment)” showed a Kd [4] of 60 µM.

B1: C. elegans SAS-6 N-terminal domain fragment with S123E (ceN[S123E]) (domain or fragment, UniProt O62479 1-168, looked up)
chain: MTSKIALFDQTLIASLLQPLSLNQPDFKAYKTKVKLKISEQRNETSGEKELKFEISRSDDFEFLFSETLNNEKYQILARDHDLTVDFDAFPKVIIQHLLCKNIVKNLEEDGEVDARKKAGYHEIADPGKPTEINIILDAEKNFCSFELFSKTPISKGKIFSIKLHAVR
notes: SAS-6, C. elegans, Uniprot ID O62479, N-terminal domain, residues 1-168, Ser123 mutated to glutamate; The crystallised variant; Two molecules in the asymmetric unit; also called ceN variant; ceN-dimer; source: recombinant, purified, crystallised; preparation of the variant not described
B1: binds [5].

B2: C. elegans SAS-6 N-terminal domain fragment (ceN, residues 1-168) (domain or fragment, UniProt O62479 1-168, looked up)
chain: MTSKIALFDQTLIASLLQPLSLNQPDFKAYKTKVKLKISEQRNETSGEKELKFEISRSDDFEFLFSETLNNEKYQILARDHDLTVDFDAFPKVIIQHLLCKNIVKNLEEDGEVDARKKAGYHSIADPGKPTEINIILDAEKNFCSFELFSKTPISKGKIFSIKLHAVR
notes: SAS-6, C. elegans, Uniprot ID O62479, N-terminal domain, residues 1-168; Cloned in a modified pET15b vector; His6-tag removed by thrombin; source: E. coli BL21 gold (DE3), purified (Ni-NTA, size exclusion chromatography); not shown: His6, N-terminal, cleaved
In the case of B2, the “stoichiometry N” value [6] is reported as 2 and the Kd [7] is reported as roughly 110 µM.

B3: C. elegans SAS-6 N terminus plus coiled coil fragment (ceN-CC, residues 1-414) (domain or fragment, UniProt O62479 1-414, looked up)
chain: MTSKIALFDQTLIASLLQPLSLNQPDFKAYKTKVKLKISEQRNETSGEKELKFEISRSDDFEFLFSETLNNEKYQILARDHDLTVDFDAFPKVIIQHLLCKNIVKNLEEDGEVDARKKAGYHSIADPGKPTEINIILDAEKNFCSFELFSKTPISKGKIFSIKLHAVRGDHLISHLLKICSSQAVKLSTFYKSADELASLRQKCGDLEKQVEKLSGVKEEFEEMSEKFKELEDEVELVKEERENIRLLVEDKEDEVADLKQDTESLQKQLEENQEELEIVGNMLREEQGKVDQLQKRNVAHQKEIGKLRAELGTAQRNLEKADQLLKRNSQQQNQQSLDMRKLGELEADLKEKDSMVESLTETIGILRKELENEKLKAAENMDSFEKLSMENENLKEKIAHYRAQRFSPAPSGL
notes: SAS-6, C. elegans, Uniprot ID O62479, N terminus plus coiled coil, residues 1-414; A His6 form from pET30a was used for electron microscopy only; source: E. coli BL21 gold (DE3), purified (glutathione sepharose, eluted by prescission protease, dialysis); not shown: GST, N-terminal, cleaved
B3: binds [8].

B4: C. elegans SAS-6 N terminus plus coiled coil fragment with I154E (ceN-CC[I154E]) (domain or fragment, UniProt O62479 1-414, looked up)
chain: MTSKIALFDQTLIASLLQPLSLNQPDFKAYKTKVKLKISEQRNETSGEKELKFEISRSDDFEFLFSETLNNEKYQILARDHDLTVDFDAFPKVIIQHLLCKNIVKNLEEDGEVDARKKAGYHSIADPGKPTEINIILDAEKNFCSFELFSKTPESKGKIFSIKLHAVRGDHLISHLLKICSSQAVKLSTFYKSADELASLRQKCGDLEKQVEKLSGVKEEFEEMSEKFKELEDEVELVKEERENIRLLVEDKEDEVADLKQDTESLQKQLEENQEELEIVGNMLREEQGKVDQLQKRNVAHQKEIGKLRAELGTAQRNLEKADQLLKRNSQQQNQQSLDMRKLGELEADLKEKDSMVESLTETIGILRKELENEKLKAAENMDSFEKLSMENENLKEKIAHYRAQRFSPAPSGL
notes: SAS-6, C. elegans, Uniprot ID O62479, residues 1-414, I154 exchanged by glutamate; source: preparation of the mutant not described
In the case of B4, the “stoichiometry N” value [8] is reported as 2.

B5: C. elegans SAS-6 coiled-coil domain fragment (ceCC, residues 181-408) (domain or fragment, UniProt O62479 181-408, looked up)
chain: SSQAVKLSTFYKSADELASLRQKCGDLEKQVEKLSGVKEEFEEMSEKFKELEDEVELVKEERENIRLLVEDKEDEVADLKQDTESLQKQLEENQEELEIVGNMLREEQGKVDQLQKRNVAHQKEIGKLRAELGTAQRNLEKADQLLKRNSQQQNQQSLDMRKLGELEADLKEKDSMVESLTETIGILRKELENEKLKAAENMDSFEKLSMENENLKEKIAHYRAQRFS
notes: SAS-6, C. elegans, Uniprot ID O62479, coiled coil, residues 181-408; Cloned in pET15b; His6-tag removed by thrombin; Monomer mass 27.4 kDa as printed; also called SAS-6 ceCC; source: recombinant, bacteria; not shown: His6, N-terminal, cleaved
In the case of B5, the “stoichiometry N” value [9] is reported as 2 and the Kd [10] is reported as 0.9 ± 0.1 µM.
